The values that follow come from patent US8247227B2, “Dendritic cell precursors” (The Cleveland Clinic Foundation, priority 2006, dated 2012).

The conditions of experiment [1]: single agent; cited from earlier work.
In experiment [2] the test system is CD34^pos stem cell subpopulation. Put plainly: Step 1 proliferative culture of fresh bone marrow: numeric expansion. Format: cell-based, mouse. The note with it: fresh mouse BM, 6-7 day Step 1 culture. Here is the method: FIG. 6 is a chart showing numeric expansion resulting from the exposure of bone marrow (BM) suspensions to various factors. BM freshly harvested from C57BL/6 mice was cultured for 6 days in the specific factors, then harvested and counted. Each bar represents 3-11 determinations±s.d., each performed in synchronous comparison to at least five other groups. […] Synergistic expansions reflected a 35-80 fold selective outgrowth of the CD34^pos subpopulation (see FIG. 10);
FIG. 10 is a histogram showing gross numeric expansion of fresh bone marrow (BM) reflective of selective outgrowth of the CD34^pos subpopulation. Freshly prepared mouse BM cell suspensions were stained with FITC-anti-CD34 mAb to enable isolation of CD34^pos and CD34^neg subpopulations by a FACSAria cell sorter. CD34^pos cells initially represented 10.8±7% of the total BM cells. The following groups were then cultured for 6 days in 75 cm^2 flasks, either in Flt3L+SCF+IL6 (striped bars) or in Flt3L+IL6 (solid bars): “Unfractionated BM” (12-15 million per flask); “FACS sorted CD34^neg cells” (12-15 million per flask); “FACS sorted CD34^pos cells” (2-3 million per flask); or “FACS sorted, unirradiated CD34^pos cells plus irradiated (3,000 cGy) CD34^neg cells.” Labels above bars indicate fold numeric expansion during the 6 day culture. […] (Not done=group not done);
We cultured fresh mouse BM in two stages, a 6-7 day proliferative phase (Step 1) and a 2-3 day post-proliferative phase (Step 2). […] FACS sorting experiments confirmed that such expansion represented a net 35-80 fold proliferation of the minor (<12%) CD34^pos stem cell subpopulation, with rapid dropout of the initially CD34^neg subpopulation (FIG. 10). Stem cell proliferation persisted well past day 7 if medium and factors were adequately replenished (not shown).
Single cell suspensions were prepared from the femurs and tibias of healthy mice (Kuriyama, H. et al. Dev. Biol. (Basel) 116, 169-178 (2004)). Following RBC lysis by ammonium chloride, no further processing was performed. […] BM cells were normally cultured for 6-7 days, harvested, counted, and washed twice in PBS prior to initiation of Step 2 cultures.

In experiment [3] the test system is BM cells. Kind of experiment: Step 2 culture: DC maturation and IL-12 production upon CpG+LPS after Step 1 conditioning. Format: cell-based, mouse. The settings on record: for Step 2 response to TLR agonists (DC maturation) after Step 1 conditioning: CpG+LPS stimulation. An excerpt: Following Step 1 conditioning, BM cultures were washed thoroughly and exposed to TLR agonists to test the cells' potential for DC maturation and IL-12 production during Step 2 culture. Since TLR9 and TLR4 were invariably expressed by mouse BM cells at the end of Step 1 cultures (not shown), we standardly employed CpG (ODN 1826) and lipopolysaccharide (LPS) to stimulate coordinate activation of MyD88 and TRIF pathways (Napolitani, G. et al. Nat. Immunol. 6, 769-776 (2005)).
(§1) Step 2 was initiated (0 hr) in CM, rmGMCSF and optionally rmIL4. Step 2 cultures were performed in 24 well cluster plates, 4 million BM cells per well in 2 ml CM. DC1 polarization stimuli such as CpG (ODN 1826, 5 μM) and LPS 50 ng/ml were added between 18-24 hrs, and cells harvested at 40-44 hrs for analyses. When included, immunosuppressive agents rmIL10, rmVEGF, rhTGFβ1 or PGE2 were added between 0 and 24 hrs of Step 2 culture at doses specified in Results. Alternatively, particulate tumor cells, either viable unirradiated, viable irradiated (10,000 cGy), or killed freeze-thawed lysate (Cohen, P A et al. Cancer Res. 54, 1055-1058 (1994)), were added to Step 2 BM cells. Viable tumor cells were sometimes labelled with CFSE (Molecular Probes, Eugene, Oreg.) to allow their identification and exclusion during subsequent FACS analyses (Peng, L. et al. J. Immunol. 169, 4811-4821 (2002)).
For routine multicolor FACS analyses, BM cells were cultured in anti-CD32 mAb plus normal mouse IgG to block FcRs, then directly stained with conjugated specific mAbs or isotype controls as listed in the figures (BD-Pharmingen, Mountain View, Calif.) (Peng, L. et al. J. Immunol. 165, 5738-5749 (2000)). When additionally assessing IL12 production at the cellular level, the last 16 hrs of Step 2 culture were performed in monensin (Golgistop™, BD-PharMingen). Then, following FcR block and direct staining of surface molecules, cells were fixed in formalin and permeabilized in tween (CytoPerm/CytoFix™, PharMingen), then additionally stained with PE-anti-mouse IL12p40 (BD-Pharmingen) or isotype control.
Assessments of supernatant contents of mIL12p70 heterodimer were performed with BD-Pharmingen reagents. mIFNα and mIFNβ ELISAs were performed with kits from PBL Biomedical Laboratories (New Brunswick, N.J.).

Experiment [4] has as its system BM cells. Put plainly: Step 2 culture: spontaneous DC maturation without exogenous maturation stimuli. It counts as cell-based, mouse.
Excerpt: DC differentiation typically arrests at the immature stage unless DCs are exposed to additional signals such as CD40 ligation, calcium ionophore or TLR agonists (Xu, S. et al. J. Immunol. 171, 2251-2261 (2003); Bonifaz, L. et al. J. Exp. Med. 196, 1627-1638 (2002); Napolitani, G. et al. Nat. Immunol. 6, 769-776 (2005); Czerniecki, B J et al. J. Immunol. 159, 3823-3837 (1997); Mailliard, R B et al. Cancer Res. 64, 5934-5937 (2004)). […] Instead, uniform upregulation of MHC Class II and CD11c ensued within hours of transfer from Flt3L+IL6 into GMCSF, followed by upregulation of CD40, co-stimulatory molecules and CCR7 between 48 and 72 hours of Step 2 culture.
as §1

In a further experiment the test system is L-selectin^low T cells. Kind of experiment: T cell co-cultures with variously conditioned DCs. The note with it: DCs prepared after the named Step 1 conditioning. It counts as cell-based, mouse.
A further experiment has as its system STAT3KO BM. Put plainly: Conditioning of STAT3 knockout BM. Format: cell-based, mouse. The procedure: (§2) FIG. 18 illustrates responses of STAT knockout vs. wildtype littermate BM to Flt3-L+IL-6 vs. GMCSF-containing conditioning regiments. […] BM was obtained from KO mice or from matched wildtype LMs, placed in standard Step 1 cultures with Flt3-L+IL-6, Flt3-L+IL-6+GMCSF, or GMCSF alone as conditioning agents, then placed in 48 hr Step 2 cultures with GMCSF+IL-4 with CpG+LPS included during the final 18 hours. […] Data are presented as mean±s.d. of 3 replicates and are representative of three (STAT5KO vs LM) or two (STAT3KO vs LM) independently performed experiments;
(§3) We examined how STAT knockout BM preparations responsed to Flt3L+IL-6 conditioning. […] Therefore, the proliferative and differentiative impacts of Flt3-L+IL-6 conditioning were absolutely STAT3-dependent, whereas final phenotypic maturation and DC1-polarization were at least partially STAT5-dependent.
(§4) We also examined how STATKO BM preparations responded to GMCSF-containing Step 1 regimens (GMCSF alone, Flt3-L+GMCSF, or Flt3-L+GMCSF+IL-6). […] Therefore, all tested GMCSF-containing regimens promoted STAT5-dependent DC differentiation, with later phenotypic maturation and DC1-polarization proving susceptible to inhibition through STAT3.

Another experiment concerns STAT5KO BM. Put plainly: Conditioning of STAT5 knockout BM. It counts as cell-based, mouse. The procedure:
as §2, §3, §4

Experiment [5] relates to CD11c^pos (committed DC) subpopulation. Kind of experiment: In vivo responses to TLR agonists. The settings on record: i.p. treatment. Also noted: species or system mouse. The procedure: FIG. 21 is a bar graph showing in vivo responses to TLR agonists. Mice were injected for 6 days with 10 mcg i.p. rhFlt3-L or no treatment. On the subsequent day, some mice were treated with a single i.p. injection for rmGMCSF 12 mcg. On the subsequent day, some mice were injected with i.p. with 50 mcg CpG (ODN 1826) and 100 mcg pI:C. […] The next day, mice were euthanized and spleens counted and analyzed by FACS for the activation status of the CD11c^pos (committed DC) subpopulation. MHC Class II, CD40, and CD86 (B7.2) were co-analyzed.

In the next experiment the test system is conditioned BM cells. Kind of experiment: Tumor contact during Step 2 culture: DC maturation and IL12 production. Format: cell-based, mouse. The procedure:
Because DC ingestion of cellular material can induce tolerogenic DCs (Bonifaz, L. et al. J. Exp. Med. 196, 1627-1638 (2002)), we tested the impact of exposing DCs to large volumes of tumor at 16-24 hours of Step 2 culture in GMCSF, to determine tumor's impact on subsequent spontaneous maturation. To cluster plate wells each containing 4 million conditioned BM cells, we added either 4 million freeze-thawed (killed) tumor cells; 3 million irradiated (10,000 cGy), trypan-excluding tumor cells; or 2 million unirradiated, actively proliferating tumor cells. Given the much larger dimensions of viable tumor cells compared to the cultured BM cells, these represented voluminous tumor challenges.
as §1

Another experiment concerns mouse tumors. The settings on record: single agent; cited from earlier work.

Method for L-selectin^low T cells: Step 2 DC cultures were performed in rGMCSF and rIL-4 with irradiated MCA-203 cells added at 24 hr and CpG+LPS added at 44 hr. Four hours later, DCs were harvested for co-culture with L-selectin^low T cells freshly harvested from MCA-203 tumor-bearing mice. T cells were co-cultured with DCs at an 8:1 ratio or were activated with immobilized anti-CD3. […] Cultures shown also received exogenous IL-2, IL-7 and IL-15.
Cultures shown also received exogenous IL2, IL7 and IL15.
Conditioned DC precursors were transferred to Step 2 culture, exposed to viable irradiated tumor, optionally further activated with CpG+LPS, then co-cultured with tolerized TDLN T cells from mice bearing the relevant tumor.
Prior to harvest of T cells from tumor-bearing mice, DCs were prepared under various Step 1 conditions in CM; Step 2 was performed in 1% non heat-deactivated mouse serum instead of FCS (CM-MS), during which BM cultures were exposed to viable irradiated tumor cells, then CpG+LPS as denoted in Results. On the day of DC harvest, T cells were freshly harvested from the tumor-draining lymph nodes of mice bearing 12 day tumors. The L-selectin^low (tolerized pre-effector) fraction of T cells was isolated by negative selection as described previously (Peng, L. et al. J. Immunol. 165, 5738-5749 (2000); Wang, L. et al. J. Translational Med. 2, 41 (2004)), and cultured in CM-MS with immobilized anti-CD3 (Peng, L. et al. J. Immunol. 165, 5738-5749 (2000); Wang, L. et al. J. Translational Med. 2, 41 (2004)) or variously conditioned DCs. Beginning on day 2 of T cell culture, some groups also received rhIL2 (24 I.U./m1), or rhIL2, rhIL7 (50 ng/ml) and rhIL15 (5 ng/ml). T cells were harvested for assays and adoptive therapy after 12 days of culture.

B1: Flt3 ligand (protein, UniProt P49771 27-235, looked up)
Fms-related tyrosine kinase 3 …: TQDCSFQHSPISSDFAVKIRELSDYLLQDYPVTVASNLQDEELCGGLWRLVLAQRWMERLKTVAGSKMQGLLERVNTEIHFVTKCAFQPPPSCLRFVQTNISRLLQETSEQLVALKPWITRQNFSRCLELQCQPDSSTLPPPWSPRPLEATAPTAPQPPLLLLLLLPVGLLLLAAAWCLHWQRTRRRTPRPGEQVPPVPSPQDLLLVEH
notes: recombinant human Flt3 ligand, gift of Amgen
Turning to B1, the “myeloproliferative activity in animals” value in experiment [1] is given as “highly myeloproliferative”. Further, the “numeric expansion during Step 1 culture” value in experiment [2] is given as “yielded only a fraction of culture input”. Also, in the experiment on BM cells [3], the “Step 2 response to TLR agonists (DC maturation) after Step 1 conditioning” value is “nearly global licensing for pronounced TLR reactivity”. For the same molecule, the “spontaneous DC maturation during Step 2 culture” value in the experiment with BM cells [4] (after Step 1 conditioning, no exogenous maturation stimuli) is on record as “spontaneous tendency to complete DC maturation”.

B2: granulocyte-macrophage colony stimulating factor (protein, UniProt P01587 18-141, looked up)
Granulocyte-macrophage …: APTRSPITVTRPWKHVEAIKEALNLLDDMPVTLNEEVEVVSNEFSFKKLTCVQTRLKIFEQGLRGNFTKLKGALNMTASYYQTYCPPTPETDCETQVTTYADFIDSLKTFLTDIPFECKKPGQK
notes: murine GMCSF from Immunex
Regarding B2, the “effect of conditioned DCs on tolerized T cell co-cultures (proliferation / toxicity)” value with L-selectin^low T cells was “ineffective for propagating the T cells”. In addition, the “survival / proliferation of STAT3KO BM in Step 1 conditioning” value in the experiment on STAT3KO BM is listed as “normal proliferation kinetics”. Moreover, the “maturational and IL-12p70 response of STAT3KO DCs” value in the experiment on STAT3KO BM (TLR stimulation, Step 2) is “abnormally heightened maturational and IL-12p70 response to TLR stimulation”. Further, in the experiment with BM cells [3], the “Step 2 response to TLR agonists (DC maturation) after Step 1 conditioning” value was “infrequent and/or blunted responses to the TLR agonists”. Moreover, the “effect of GMCSF addition during Step 2 culture” value in the experiment on BM cells [3] (GMCSF added in Step 2 only) was “not at all inhibitory”. The “effect of co-conditioning with GMCSF on Flt3L+IL6's licensing impact” value in the experiment with BM cells [3] (GMCSF present in Step 1) is listed as “abrogated”. Also, the “proliferation and DC differentiation of STAT5KO BM” value in the experiment with STAT5KO BM is recorded as “strikingly ineffective for generating DCs”. Besides, in experiment [5], the “activation of maturation markers MHC Class II, CD40, CD86 on CD11c^pos spleen cells” value is “further enhanced”. In addition, the “effect of GMCSF as Step 1 agent on licensing of spontaneous DC maturation by Flt3L or Flt3L+IL6” value in the experiment on BM cells [4] was “fully abrogated”. Further, the “effect of GMCSF as Step 1 agent on licensing of tumor-induced activation by Flt3L+IL6” value in the experiment on conditioned BM cells is “fully abrogated”.

B3: interleukin-6 (protein, UniProt P08505 25-211, looked up)
Interleukin-6: FPTSQVRRGDFTEDTTPNRPVYTTSQVGGLITHVLWEIVEMRKELCNGNSDCMNNDDALAENNLKLPEIQRNDGCYQTGYNQEICLLKISSGLLEYHSYLEYMKNNLKDNKKDKARVLQRDTETLIHIFNQEVKDLHKIVLPTPISNALLTDKLESQKEWLRTKTIQFILKSLEEFLKVTLRSTRQT
Turning to B3, in the experiment on mouse tumors, the “therapeutic properties against established mouse tumors” value is recorded as “extremely potent therapeutic properties”.
